The record followed here is patent US20110300156A1 (Genmab, published 2011).

The target in assay [1] is T1, TFECDHis (extracellular domain of tissue factor, amino acid 1-251, with C-terminal His tag) (human, UniProt P13726 33-251).
T1 construct: range 1-251; The stated range 1-251 starts at residue 1 of NP-001984; also called extracellular domain of TF
Nature of the assay: ELISA, Fab fragment on coated extracellular domain of TF. As to the method:
The specificity of the obtained anti-TF HuMabs was evaluated by ELISA. ELISA plates (Microlon; Greiner Bio-One) were coated overnight at +4° C. with 0.5 μg/mL of TFECDHis in PBS, pH 7.4. Coated ELISA plates were emptied and blocked for one hour at room temperature with 2% (v/v) chicken serum (Gibco, Paisley, Scotland) in PBS and washed with PBS containing 0.05% Tween 20 (PBST). Subsequently, HuMabs, serially diluted in PBSTC (PBS supplemented with 2% (v/v) chicken serum and 0.05% (v/v) Tween-20), were incubated for 1 hr at RT under shaking conditions (300 rpm). Bound HuMabs were detected using HRP-conjugated goat-anti-human IgG antibodies (Jackson ImmunoResearch) diluted 1:5,000 in PBSTC, which were incubated for 1 hr at RT under shaking conditions (300 rpm). […] HuMab-KLH (a human monoclonal antibody against KLH (keyhole limpet haemocyanin)), was used as a negative control. Mouse anti-human TF (ERL) was used as positive control (HRP labeled anti-mouse IgG as conjugate). Binding curves were analyzed using non-linear regression (sigmoidal dose-response with variable slope) using GraphPad Prism V4.03 software.
(§1) Binding of Fab fragments of anti-TF HuMabs to TF was measured by ELISA (coated extracellular domain of TF) and by FACS (TF on BxPC3 cells). ELISA was performed essentially as described supra. Bound Fab fragments were detected using HRP-conjugated donkey-anti human H+L. FACS analysis was performed essentially as described supra. FITC-conjugated goat anti-human IgG (H+L) (Jackson) was used to detect bound lead candidates. Fluorescence was measured on a FACSCantoII. Binding curves were analyzed as described supra, using GraphPad Prism 5 software.
(An ELISA detects its analyte on a solid surface through an enzyme-linked reagent.)

In assay [2] the target is T2, human tissue factor (TF), membrane-bound on cells (human, UniProt P13726 33-295).
T2 construct: whole, on cells; also called cellular TF
Nature of the assay: FACS, Fab fragment on BxPC3 cells. As to the method:
(§2) Cells were resuspended in PBS (2×10⁶ cells/ml), put in 96-well V-bottom plates (50 μl/well). 50 μl of serially diluted HuMab in FACS buffer (PBS supplemented with 0.1% BSA and 0.02% Na-azide) was added to the cells and incubated for 30 minutes on ice. After washing three times with FACS buffer, 50 μl of phycoerythrin (PE)-conjugated goat anti-human IgGFc (Jackson ImmunoResearch), diluted 1:100 in FACS buffer, was added. After 30 minutes on ice (in the dark), cells were washed three times, and specific binding of the HuMabs was detected by flow cytometry on a FACSCalibur (BD Biosciences). HuMab-KLH was used as a negative control. Mouse anti-TF followed by PE-conjugated anti-mouse IgGFc was used as positive control. Binding curves were analyzed using non-linear regression (sigmoidal dose-response with variable slope) using GraphPad Prism V4.03 software (GraphPad Software, San Diego, Calif., USA).
as §1
For orientation: Flow cytometry measures light scatter and fluorescence of single cells or particles in a stream.

For assay [3], the target named is T3, murine tissue factor (TF) on transfected HEK293F cells (murine, UniProt P20352 29-294).
T3 construct: whole, on cells; also called murine TF; TFmm
T3 sequence (looked up): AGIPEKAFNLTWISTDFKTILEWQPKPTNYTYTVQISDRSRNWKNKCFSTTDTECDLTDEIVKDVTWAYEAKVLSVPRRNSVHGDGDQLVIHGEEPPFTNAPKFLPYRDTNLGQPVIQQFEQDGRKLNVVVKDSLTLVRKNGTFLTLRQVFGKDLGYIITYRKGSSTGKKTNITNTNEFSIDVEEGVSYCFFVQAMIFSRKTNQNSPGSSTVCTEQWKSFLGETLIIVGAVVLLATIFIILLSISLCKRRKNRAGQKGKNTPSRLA
Nature of the assay: FACS on transfected HEK293F cells, 30 µg/mL antibody [Figure 18; no figure label on the sheet]. As to the method:
as §2
To determine domains important for binding of anti-TF HuMabs to human TF, DNA shuffling was performed between human and murine TF. Shuffle constructs were prepared from DNA encoding human TF, by replacing human domains with murine domains and from DNA encoding murine TF by replacing murine domains with human domains.

As usually defined, the EC50 is the concentration needed to bring the measured effect to its halfway point. A low value points to greater potency.

B1: HuMab-TF-044 Fab fragment (Fab, V domains shown)
VH: QVQLVESGGGVVQPGRSLRLSCAASGFTFSDYAMHWVRQAPGKGLEWVAVIPYDGDNKYYADSVKGRFTISRDNSKNTLYLQMNSLRAEDTAVYYCAREDWGLEVDYWGQGALVTVSS
VL: AIQLTQSPSSLSASVGDRVTITCRASQGINSALAWYQQKPGKAPKLLIYDASSLESGVPSRFSGSGSGTDFTLTISSLQPEDFATYYCQQFNSYPLTFGGGTKVEIK
notes: Fab fragment of the HuMab; VH and VL as for the parent antibody
For the molecule B1, the EC50 in assay [1] is 0.59 µg/mL; in assay [2] it was 8.04 µg/mL.

B2: HuMab-TF-109 Fab fragment (Fab, V domains shown)
VH: QVQLVESGGGVVQPGRSLRLSCPASGFTFSIYAMHWVRQAPGKGLEWVAVVSNDGYNKYYADSVKGRFTISRDNSKDTLYLQMNSLRAEDTAVYYCARDGQLGRGYFDYWGQGTLVTVSS
VL: EIVLTQSPATLSLSPGERAILSCRASQSVSSYLAWYQQKPGQAPRLLIYDASNRATGIPARFSGSGSGTDFTLTISSLEPEDFAVYYCQQRSNWPLTFGGGTKVEIK
notes: as for B1
B2: the EC50 in assay [1] stood at 0.02 µg/mL; in assay [2], 0.143 µg/mL.

B3: HuMab-TF-111 Fab fragment (Fab, V domains shown)
VH: QVQLVESGGGVVQPGRSLRLSCAGSGFTFNRYAMYWVRQAPGKGLDWVAVISNDGINKYYADSVKGRFTISRDNSKNTLYLQMNSLRAEDTAVYYCARDHTMVRGAFDYWGQGTLVTVSS
VL: EIVLTQSPATLSLSPGERATLSCRASQSVSSYLAWYQQKPGQAPRLLIYDASNRATGIPARFSGSGSGTDFTLTISSLEPEDFAVYYCQQRSNWPLTFGGGTKVEIK
notes: as for B1
Turning to B3, the EC50 in assay [1] is 3.14 µg/mL.

B4: anti-TF HuMab 017-D12 (antibody, V domains shown)
VH: EVQLLESGGGLVQPGGSLRLSCAASGFTFSSYAMSWVRQAPGKGLEWVSAISGSGDSTNYADSVKGRFTISRDNSKNTLYLQMNSLRAEDTAVYYCAKDGYFLLWYFDLWGRGTLVTVSS
VL: not shown
notes: Human monoclonal antibody from HuMab mice
In the case of B4, the binding result in assay [3] is recorded as “no binding (tested: 30 µg/mL)”.

B5: HuMab-TF-011 Fab fragment (Fab, V domains shown)
VH: EVQLLESGGGLVQPGGSLRLSCAASGFTFSNYAMSWVRQAPGKGLEWVSSISGSGDYTYYTDSVKGRFTISRDNSKNTLYLQMNSLRAEDTAVYYCARSPWGYYLDSWGQGTLVTVSS
VL: DIQMTQSPPSLSASAGDRVTITCRASQGISSRLAWYQQKPEKAPKSLIYAASSLQSGVPSRFSGSGSGTDFTLTISSLQPEDFATYYCQQYNSYPYTFGQGTKLEIK
notes: Fab fragment of the HuMab; VH and VL as for the parent antibody; also called -011 Fab fragments
For B5, the results for the EC50 in assay [1] and in assay [2] were 0.04 µg/mL and 0.132 µg/mL, respectively.

B6: HuMab-TF-013 Fab fragment (Fab, V domains shown)
VH: EVQLVQSGAEVKKPGESLKISCKGSGYSFTSYWIGWVRQMPGKGLEWMGIIYPGDSDTRYSPSFQGQVTISADKSISTAYLQWSSLKASDTAMYYCARIHRGAGYSSSWPGAFDIWGQGTMVTVSS
VL: DIQMTQSPSSLSASVGDRVTITCRASQGISRWLAWYQQKPEKAPKSLIYAASSLQSGVPSRFSGSGSGTDFTLTISSLQPEDFATYYCQQYDSDPITFGQGTRLEIK
notes: as for B1
For B6, the EC50 was found to be 0.03 µg/mL in assay [1] and 0.301 µg/mL in assay [2].

B7: HuMab-TF-098 Fab fragment (Fab, V domains shown)
VH: QVQLVQSGAEVRKPGSSVKVSCKASGGSFNNYPIFWVRQAPGQGFEWMGRIIPILGITAYAQKFQGRVTITADKSTSTAYMELNSLRSEDTAVYYCAGGDDLDAFDIWGQGTMVSVSS
VL: DIQMTQSPSSLSASVGDRVTITCRASQGISSWLAWYQQKPEKAPKSLIYAASSLQSGVPSRFSGSGSGTDFTLTISSLQPEDFATYYCQQYNSYPYTFGQGTKLEIK
notes: as for B1
As to B7, a half-maximal response in assay [1] (EC50) required 1.98 µg/mL.
